One may read the Kd as a measure of binding affinity in units of concentration. A word on the stoichiometry N: it is a count of units in the complex or per binding partner.

From PMC2120063 (The Journal of Cell Biology, 1994) come the findings set out here.

In assay [1] the target is T1, rabbit skeletal muscle actin (rabbit, UniProt P68135 1-377). Put plainly: co-sedimentation.
Assay [2] addresses T1, rabbit skeletal muscle actin. Put plainly: pyrene-actin polymerisation kinetics.
For assay [3] the target is unchanged. Put plainly: pyrene-actin polymerisation kinetics. The source holds these as a separate data set.

B1: full-length epitope-tagged recombinant chick cardiac muscle tensin (natural protein)
chain: MDFGSVMNQAATPCSPAVNYELPSPGQSITKQVDTPDATRSPRGGQAHRKASRSMSVTAAMESSCELDLVYITERIIAVSYPSTAEEQSFRSNLREVAHMLKSKHGDNYVLFNLSERRHDISKLHPKVLDFGWPDLHTPALEKICSICKAMDTWLNAAAHNVVVLHNKGNRGRLGVVVAAYMHYSNISASADQALDRFAMKRFYEDKVVPVGQPSQKRYIHYFSGLLSGSIKMNNKPLFLHHVIMHGIPNFESKGGCRPFLKIYQAMQPVYTSGIYNVQGDSQTGICITIEPGLLLKGDILLKCYHKKFRSPTRDVIFRVQFHTCAVHDLDIVFGKEDLDEAFRDERFPEYGKVEFVFSYGPEKIQGMEHLENGPSVSVDYNTSDPLIRWDSYENFNIQREDSTEGTWAEPALPGKHLEKEVGHTQGPLDGSLYAKVKKKDSLHGSIGAVNAARLPLSAAPNHVEHTLSVSSDSGNSTASTKTDRTDEPGAPGAPTGHAVLSPEEKRELDRLLVGFGLESAPPMHNHAPGPAPARLPAGPGRHVVPAQVHVNGAGTPLLAERETDILDDELPNQDGHSVGSLGTLSSLDGTTTASEAGFHEAPRVGSLSSLPNGPASYNGAEKMLKEGLYEAEPLSNGAYPYSNQNTLMGHHLRDPLAHLRPSASAQEHLAGYPQRQPASTSPAWLQPPVPQPYLYGYDLPSAHRSQSFPAVGTAKYEANLALPQAPARSTSSREAVQRGLNSWQQQGGSRPPSQLHDGGLESHSPSLSSCSPQPSPLQPMPPHSHSMPEFPRAPSRREIEQSIEALDVLMLDLAPSVHKSQSVPSAATRQDKPAAMLSSLSAQPLSGHYAQPTPQVVQPRSFGTSVGTDPLAKAYSPGPLVPAARSTAEPDYTVHEYRETYTPYSYQPVPEPRSYGSAPASILPLSASYSPAGSQQLLVSSPPSPTAPAQSQLPHKGLESYEDLSRSGEEPLNLEGLVAHRVAGVQSREKSPEESTVPARRRTPSDSHYEKSSPEPGSPRSPTVLSPEVVSTIAANPGGRPKEPHLHSYKEAFEEMESASPSSLTSGGVRSPPGLAKTPLSALGLKPHNPADILLHPVGELEGEAGADSEEEPRSYVESVARTATTGRAGNLPAAQPVGLEVPARNGAFGNSFTVPSPVSTSSPIHSVDGASLRSYPSEGSPHGTVTPPHAVAETAYRSPMVSQTPSAHSSYQTSSPSSFQAGTLGSPYASPDYPDGRAGFQPDPQARQQPQVSVVGVHALPGSPRTLHRTVATNTPPSPGFGRRAANPAVASVPGSPGLGRHTVSPHAPPGSPSLARHQMAAVPPGSPMYGYSSPEERRPTLSRQSSASGYQPPSTPSFPVSPAYYPGTSTPHSSSPDSAAYRQGSPTPQPALPEKRRMSAGERSNSLPNYATVNGKASSPLSSGMSSPSSGSAVAFSHTLPDFSKFSMPDISPETRANVKFVQDTSKYWYKPDISREQAIALLKDREPGAFIIRDSHSFRGAYGLAMKVASPPPTVMQQNKKGDITNELVRHFLIETSPRGVKLKGCPNEPNFGCLSALVYQHSIMPLALPCKLVIPDRDPMEEKKDAASTTNSATDLLKQGAACNVLFINSVEMESLTGPQAISKAVAETLVADPTPTATIVHFKVSAQGITLTDNQRKLFFRRHYPLNTVTFCDLDPQERKWTKTDGSGPAKLFGFVARKQGSTTDNVCHLFAELDPDQPAAAIVNFVSRVMLGSGQKR
Take B1: the Kd in assay [1] is 100 nM; in assay [2], 10 to 100 nM; in assay [3], roughly 20 nM. Moreover, in assay [1], the “stoichiometry N” value is 11 actin subunits per tensin.

B2: GST-tensin p29(1-263) (domain or fragment)
chain: MDFGSVMNQAATPCSPAVNYELPSPGQSITKQVDTPDATRSPRGGQAHRKASRSMSVTAAMESSCELDLVYITERIIAVSYPSTAEEQSFRSNLREVAHMLKSKHGDNYVLFNLSERRHDISKLHPKVLDFGWPDLHTPALEKICSICKAMDTWLNAAAHNVVVLHNKGNRGRLGVVVAAYMHYSNISASADQALDRFAMKRFYEDKVVPVGQPSQKRYIHYFSGLLSGSIKMNNKPLFLHHVIMHGIPNFESKGGCRPFLKI
Take B2: the “stoichiometry N” value in assay [1] was 2 to 4 actin subunits per tensin fragment.
